Measured values reported in patent publication US20140105889A1 (published 2014).
Positions count from the first letter of the chain named. Names and notes keep the numbering of the source. Each block holds one binder with its values, some of them ahead of it.

Legend:
[1] = target: T1, human FcγRIIa type R (human, UniProt P12318 36-217); assay: SPR (Biacore), antibody captured on chip, FcγR as analyte; binding amount divided by that of IL6R-F652/IL6R-L, times 100
T1 construct: also called Fcγ RIIaR; FcγRIIa(R)
T1 chain: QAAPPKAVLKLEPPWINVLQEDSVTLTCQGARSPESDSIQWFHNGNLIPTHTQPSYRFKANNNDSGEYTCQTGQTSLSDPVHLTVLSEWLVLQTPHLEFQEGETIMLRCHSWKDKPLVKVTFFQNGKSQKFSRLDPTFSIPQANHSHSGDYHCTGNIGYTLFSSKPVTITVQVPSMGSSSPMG

[2] = target: T2, human FcγRIIb (human, UniProt P31994 43-217); assay: as above
T2 construct: also called FcγIIB; FcγRIIb extracellular region
T2 sequence: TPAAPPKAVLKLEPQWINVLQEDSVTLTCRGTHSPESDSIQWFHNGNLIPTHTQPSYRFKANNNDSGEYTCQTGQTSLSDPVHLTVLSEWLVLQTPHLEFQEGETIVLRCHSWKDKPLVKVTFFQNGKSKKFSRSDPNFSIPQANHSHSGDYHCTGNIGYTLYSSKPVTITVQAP

[3] = target: T3, FcγRIIIa type V (human, UniProt P08637 17-208, limits assumed); assay: SPR (Biacore), antibody captured on chip, FcγR as analyte, method of Example 14
T3 construct: Soluble analyte in Biacore; also called FcγRIIIaV; FcγRIIIa(V)
T3 sequence (P08637 other isoform, or with tags, fused parts or gaps limits assumed): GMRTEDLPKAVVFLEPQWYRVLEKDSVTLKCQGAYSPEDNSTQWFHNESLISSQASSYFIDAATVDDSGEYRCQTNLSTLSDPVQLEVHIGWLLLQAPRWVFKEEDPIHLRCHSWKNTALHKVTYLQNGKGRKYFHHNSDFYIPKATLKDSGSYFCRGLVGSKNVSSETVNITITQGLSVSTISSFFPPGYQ
Description: Next, interaction between these antibodies and FcγR was analyzed kinetically using the Biacore T100 (GE Healthcare). The interaction was measured at a temperature of 25° C. using HBS-EP+ (GE Healthcare) for the running buffer. The Series S Sensor Chip CM5 (GE Healthcare) was used after immobilizing Protein A by amine coupling. […] Antibody captured on the chip was washed by allowing 10 mM glycine-HCl (pH 1.5) to react following measurement. The chip regenerated in this manner was used repeatedly. The dissociation constant KD (mol/L) was calculated from the association rate constant ka (L/mol/s) and dissociation rate constant kd (1/s) as calculated by global-fitting the measurement results with a 1:1 Langmuir binding model using the Biacore

[4] = target: T4, FcγRIIa type H (human, UniProt P12318 36-217); assay: SPR (Biacore), captured antibody, FcγR as analyte, method of Example 14
T4 construct: also called FcγRIIaH; FcγRIIa(H)
T4 sequence: T1 chain with R133H

[5] = target: T5, FcγRIIb (human, UniProt P31994 43-217, limits assumed); assay: ratio of SPR KD values of this variant (FcγRIIaR over FcγRIIb)
T5 construct: also called FcγIIB; FcgRIIb
T5 sequence: T2 sequence
Excerpt: (§1) Furthermore, KD(IIaR)/KD(IIb) and KD(IIaH)/KD(IIb) in the table respectively represent the value obtained by dividing the KD value of each variant for FcγRIIaR by the KD value of each variant for FcγRIIb, and the value obtained by dividing the KD value of each variant for FcγRIIaH by the KD value of each variant for FcγRIIb.

[6] = target: T5, FcγRIIb; assay: ratio of SPR KD values of this variant (FcγRIIaH over FcγRIIb)
Excerpt: as §1

[7] = target: T6, human FcγRIIb (human, UniProt P31994 43-217, limits assumed); assay: ratio of this variant's SPR KD for FcγRIIaR to its KD for FcγRIIb
T6 construct: also called FcγIIB; hFcgRIIb
T6 sequence: T2 sequence
Excerpt: as §1

[8] = target: T6, human FcγRIIb; assay: ratio of this variant's SPR KD for FcγRIIaH to its KD for FcγRIIb
Excerpt: as §1

relative binding activity for FcγRIIaR [1]: 100 % of the binding amount of IL6R-F652/IL6R-L | relative binding activity for FcγRIIb [2]: 100 % of the binding amount of IL6R-F652/IL6R-L
B1: IL6R-F652/IL6R-L (antibody, human IgG1)
heavy: QVQLQESGPGLVKPSETLSLTCAVSGHSISHDHAWSWVRQPPGEGLEWIGFISYSGITNYNPSLQGRVTISRDNSKNTLYLQMNSLRAEDTAVYYCARSLARTTAMDYWGEGTLVTVSSASTKGPSVFPLAPSSKSTSGGTAALGCLVKDYFPEPVTVSWNSGALTSGVHTFPAVLQSSGLYSLSSVVTVPSSSLGTQTYICNVNHKPSNTKVDKKVEPKSCDKTHTCPPCPAPELLGGDSVFLFPPKPKDTLYISRTPEVTCVVVDVSHEDPEVKFNWYVDGVEVHNAKTKPREEQYNSTYRVVSVLTVLHQDWLNGKEYKCKVSNKALPAPIEKTISKAKGQPREPQVYTLPPSRDELTKNQVSLTCLVKGFYPSDIAVEWESNGQPENNYKTTPPVLDSDGSFFLYSKLTVDKSRWQQGNVFSCSVMHEALHYHYTQKSLSLSP
light: DIQMTQSPSSLSASVGDRVTITCRASQDISSYLNWYQQKPGKAPKLLIYYTSRLHSGVPSRFSGSGSGTDFTFTISSLQPEDIATYYCQQGNTLPYTFGQGTKVEIK
notes: Anti-human IL-6 receptor IgG1 antibody; H chain is IL6R-F11 (M252Y/N434Y in IL6R-G1d) with P238D (EU numbering); Control antibody of the PD variants; copies: 2 + 2

Kd [3]: 69 µM
B2: IL6R-BP206/IL6R-L (antibody, human IgG1)
heavy: B1 heavy with E235D, Y254M, P273G, A332R, Y436N, K441E
light: B1 light
notes: Anti-human IL-6 receptor IgG1 Fc variant

Kd [4]: 9 µM | KD (IIaR)/KD (IIb) [5]: 14.5 | KD (IIaH)/KD (IIb) [6]: 93.8
B3: IL6R-BP148/IL6R-L (antibody, human IgG1)
heavy: B1 heavy with E235D, L236Y, G239D, Y254M, K328A, A332K, Y436N, K441E
light: B1 light
notes: EU numbering

KD (IIaR)/KD (IIb) [7]: 17.1 | KD (IIaH)/KD (IIb) [8]: 89.9
B4: IL6R-BP086/IL6R-L (antibody, human IgG1)
heavy: B1 heavy with Y254M, K328A, A332K, Y436N, K441E
light: B1 light
notes: copies: 2 + 2

Kd [3]: 75 µM
B5: IL6R-BP211/IL6R-L (antibody, human IgG1)
heavy: B1 heavy with E235D, Y254M, H270D, P273G, K328A, A332R, Y436N, K441E
light: B1 light
notes: as for B2

relative binding activity for FcγRIIaR [1]: 222 % of the binding amount of IL6R-F652/IL6R-L | relative binding activity for FcγRIIb [2]: 127 % of the binding amount of IL6R-F652/IL6R-L
B6: IL6R-PD080/IL6R-L (antibody)
heavy: B1 heavy with G239D
light: B1 light
notes: PD variant: P238D/G237D introduced into IL6R-F11 (EU numbering); copies: 2 + 2

relative binding activity for FcγRIIaR [1]: 196 % of the binding amount of IL6R-F652/IL6R-L | relative binding activity for FcγRIIb [2]: 109 % of the binding amount of IL6R-F652/IL6R-L
B7: IL6R-PD087/IL6R-L (antibody, human IgG1)
heavy: B1 heavy with G239M
light: B1 light
notes: PD variant: P238D/G237M introduced into IL6R-F11 (EU numbering); copies: 2 + 2

KD (IIaR)/KD (IIb) [5]: 17.7 | KD (IIaH)/KD (IIb) [6]: 109
B8: IL6R-BP150/IL6R-L (antibody, human IgG1)
heavy: B1 heavy with L236Y, G239D, Y254M, K328A, A332R, Y436N, K441E
light: B1 light
notes: EU numbering

KD (IIaR)/KD (IIb) [7]: 13.3 | KD (IIaH)/KD (IIb) [8]: 106
B9: IL6R-BP088/IL6R-L (antibody, human IgG1)
heavy: B1 heavy with G239D, Y254M, K328A, A332K, Y436N, K441E
light: B1 light
notes: copies: 2 + 2

Kd [3]: 72 µM
B10: IL6R-BP203/IL6R-L (antibody, human IgG1)
heavy: B1 heavy with G239D, Y254M, P273G, A332R, Y436N, K441E
light: B1 light
notes: as for B2

relative binding activity for FcγRIIaR [1]: 175 % of the binding amount of IL6R-F652/IL6R-L | relative binding activity for FcγRIIb [2]: 112 % of the binding amount of IL6R-F652/IL6R-L
B11: IL6R-PD043/IL6R-L (antibody, human IgG1)
heavy: B1 heavy with L236Y
light: B1 light
notes: PD variant: P238D/L234Y introduced into IL6R-F11 (EU numbering); copies: 2 + 2

relative binding activity for FcγRIIaR [1]: 844 % of the binding amount of IL6R-F652/IL6R-L | relative binding activity for FcγRIIb [2]: 139 % of the binding amount of IL6R-F652/IL6R-L
B12: IL6R-PD097/IL6R-L (antibody, human IgG1)
heavy: B1 heavy with S241D
light: B1 light
notes: PD variant: P238D/S239D introduced into IL6R-F11 (EU numbering); copies: 2 + 2

Kd [4]: 2.6 µM | KD (IIaR)/KD (IIb) [5]: 20.3 | KD (IIaH)/KD (IIb) [6]: 182
B13: IL6R-BP181/IL6R-L (antibody, human IgG1)
heavy: B1 heavy with E235D, Y254M, P273G, K328A, A332K, Y436N, K441E
light: B1 light
notes: EU numbering
